Assay results from publication PMC2902579.

B1: HCV IRES domain II (39-119) (structured_RNA)
RNA: GGACUCCCCUGUGAGGAACUACUGUCUUCACGCAGAAAGCGUCUAGCCAUGGCGUUAGUAUGAGUGUCGUGCAGCCUCCAGGA
B2: HCV IRES domains III-IV (131-388) (structured_RNA)
RNA: GGGAGAGCCAUAGUGGUCUGCGGAACCGGUGAGUACACCGGAAUUGCCAGGACGACCGGGUCCUUUCUUGGAUCAACCCGCUCAAUGCCUGGAGAUUUGGGCGUGCCCCCGCGAGACUGCUAGCCGAGUAGUGUUGGGUCGCGAAAGGCCUUGUGGUACUGCCUGAUAGGGUGCUUGCGAGUGCCCCGGGAGGUCUCGUAGACCGUGCACCAUGAGCACGAAUCCUAAACCUCAAAGAAAAACCAAAGGGCGCGCCGC

What was measured:
PKR dsRBD (p20) [1] = molecular target: T1, PKR dsRBD (p20) (UniProt P19525 1-184); experiment: nuclease footprinting
PKR dsRBD (p20) [2] = molecular target: T1, PKR dsRBD (p20); experiment: EMSA

T1 sequence (P19525 1-184): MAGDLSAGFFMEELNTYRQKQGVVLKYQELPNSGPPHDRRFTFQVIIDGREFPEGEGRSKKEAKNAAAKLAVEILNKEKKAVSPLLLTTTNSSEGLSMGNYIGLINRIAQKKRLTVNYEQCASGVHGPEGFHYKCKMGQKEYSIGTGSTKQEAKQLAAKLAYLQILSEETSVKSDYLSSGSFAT

Binder | binding result (PKR dsRBD (p20) [1]) | binding result (PKR dsRBD (p20) [2])
B1 | binds | –
B2 | – | binds
